Measurements as given in patent publication US20260242735A1 (UNIVERSIT T BASEL, published 2026).

B1: Refmab #3 (antibody, V domains shown)
VH: QVQLVQSGAEVKKPGSSVKVSCKASGYTFTDYNMHWVRQAPGQGLEWIGYIYPYNGGTGYNQKFKSKATITADESTNTAYMELSSLRSEDTAVYYCARGRPAMDYWGQGTLVTVSS
VL: DIQMTQSPSSLSASVGDRVTITCRASESVDNYGISFMNWFQQKPGKAPKLLIYAASNQGSGVPSRFSGSGSGTDFTLTISSLQPDDFATYYCQQSKEVPWTFGQGTKVEIK
notes: The alanine scan used IgG or Fab
B2: Refmab #1 (antibody, V domains shown)
VH: EVQLVQSGAEVKKPGSSVKVSCKASGYTITDSNIHWVRQAPGQSLEWIGYIYPYNGGTDYNQKFKNRATLTVDNPTNTAYMELSSLRSEDTAFYYCVNGNPWLAYWGQGTLVTVSS
VL: DIQLTQSPSTLSASVGDRVTITCRASESLDNYGIRFLTWFQQKPGKAPKLLMYAASNQGSGVPSRFSGSGSGTEFTLTISSLQPDDFATYYCQQTKEVPWSFGQGTKVEVK
notes: The alanine scan used IgG or Fab; also called hP67.6
B3: Refmab #4 (antibody, V domains shown)
VH: QVQLVQSGAEVKKPGESVKVSCKASGYTFTNYGMNWVKQAPGQGLEWMGWINTYTGEPTYADKFQGRVTMTTDTSTSTAYMEIRNLGGDDTAVYYCARWSWSDGYYVYFDYWGQGTSVTVSS
VL: DIVMTQSPDSLTVSLGERTTINCKSSQSVLDSSTNKNSLAWYQQKPGQPPKLLLSWASTRESGIPDRFSGSGSGTDFTLTIDSPQPEDSATYYCQQSAHFPITFGQGTRLEIK
notes: as for B1
B4: Refmab #2 (antibody, V domains shown)
VH: QVQLVQSGAEVKKPGSSVKVSCKASGGTFSDYAISWVRQAPGQGLEWMGRIIPILGVADYAQKFQGRVTITADKSTRTAYMELSSLRSEDTAVYYCARNWADAFDIWGQGTMVTVSS
VL: DIQLTQSPSSLSASVGDRVTITCRASQGISSVLAWYQQKPGKAPKLLIYDASSLESGVPSRFSGSGSGTDFTLTISSLQPEDFATYYCQQFDSSITFGQGTKLEIK
notes: as for B1

target: human CD33 F117A (human, UniProt P20138 18-364); assay: flow cytometry on HEK293-T, alanine scan
Sequence (P20138 18-364 F117A limits assumed): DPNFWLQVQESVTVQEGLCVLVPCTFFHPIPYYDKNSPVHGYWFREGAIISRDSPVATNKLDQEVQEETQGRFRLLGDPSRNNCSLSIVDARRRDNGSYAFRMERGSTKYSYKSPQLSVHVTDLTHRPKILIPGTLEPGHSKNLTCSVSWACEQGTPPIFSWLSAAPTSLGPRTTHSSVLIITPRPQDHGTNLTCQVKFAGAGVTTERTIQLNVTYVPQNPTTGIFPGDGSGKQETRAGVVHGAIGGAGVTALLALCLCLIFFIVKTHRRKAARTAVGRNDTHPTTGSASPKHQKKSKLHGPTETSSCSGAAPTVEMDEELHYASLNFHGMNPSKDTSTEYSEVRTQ
Description: (§1) An alanine scan on human CD33 was performed to the determine the residues on CD33 that are involved in binding to the antibodies investigated. […] Briefly, a mutation library of CD33 was created by high-throughput, site-directed mutagenesis. Each residue was individually mutated to alanine, with alanine codons mutated to serine. The mutant library was arrayed in 384-well microplates and transiently transfected into HEK293-T. Following transfection, cells were incubated with the indicated antibodies (IgG or Fab) at concentrations pre-determined using an independent immunofluorescence titration curve on wild type CD33. […] Binding of each antibody to each mutant clone was determined in duplicates. For each point, background fluorescence was subtracted from the raw data, which were then normalized to antibody reactivity with wild type CD33.
(§2) Critical residues for antibody binding (outlined in dark grey) were residues whose mutations led to a binding of the test Abs of less than 20%. Additional secondary residues (outlined in light grey) were identified that led to a binding of the test Abs of between 20 and 40% as compared to the wild type CD33.

Binder	Mean % WT Binding [% WT binding]
B1	166
B2	98.7
B3	142
B4	111

target: human CD33 G114A (human, UniProt P20138 18-364); assay: flow cytometry on HEK293-T, alanine scan
Sequence (P20138 18-364 G114A limits assumed): as the sequence (P20138 18-364 F117A limits assumed) above, with G97A, A100F counted along it
Description: as §1, §2

Binder	Mean % WT Binding [% WT binding]
B1	92.6
B2	96.9
B3	110
B4	116

target: human CD33 K130A (human, UniProt P20138 18-364); assay: flow cytometry on HEK293-T, alanine scan
Sequence (P20138 18-364 K130A limits assumed): as the sequence (P20138 18-364 F117A limits assumed) above, with A100F, K113A counted along it
Description: as §1, §2

Binder	Mean % WT Binding [% WT binding]
B1	152
B2	106
B3	180
B4	123

target: human CD33 R119A (human, UniProt P20138 18-364); assay: flow cytometry on HEK293-T, alanine scan
Sequence (P20138 18-364 R119A limits assumed): as the sequence (P20138 18-364 F117A limits assumed) above, with A100F, R102A counted along it
Description: as §1, §2

Binder	Mean % WT Binding [% WT binding]
B1	1020
B2	109
B3	138
B4	130

target: human CD33 N99A (human, UniProt P20138 18-364); assay: flow cytometry on HEK293-T, alanine scan
Sequence (P20138 18-364 N99A limits assumed): as the sequence (P20138 18-364 F117A limits assumed) above, with N82A, A100F counted along it
Description: as §1, §2

Binder	Mean % WT Binding [% WT binding]
B1	98.6
B2	80.2
B3	43.5
B4	56.8

target: human CD33 L148A (human, UniProt P20138 18-364); assay: flow cytometry on HEK293-T, alanine scan
Sequence (P20138 18-364 L148A limits assumed): as the sequence (P20138 18-364 F117A limits assumed) above, with A100F, L131A counted along it
Description: as §1, §2

Binder	Mean % WT Binding [% WT binding]
B1	108
B2	83.1
B3	113
B4	119

target: human CD33 L93A (human, UniProt P20138 18-364); assay: flow cytometry on HEK293-T, alanine scan
Sequence (P20138 18-364 L93A limits assumed): as the sequence (P20138 18-364 F117A limits assumed) above, with L76A, A100F counted along it
Description: as §1, §2

Binder	Mean % WT Binding [% WT binding]
B1	120
B2	88.6
B3	63.9
B4	103

target: human CD33 Q133A (human, UniProt P20138 18-364); assay: flow cytometry on HEK293-T, alanine scan
Sequence (P20138 18-364 Q133A limits assumed): as the sequence (P20138 18-364 F117A limits assumed) above, with A100F, Q116A counted along it
Description: as §1, §2

Binder	Mean % WT Binding [% WT binding]
B1	101
B2	95.6
B3	96
B4	131

target: human CD33 P132A (human, UniProt P20138 18-364); assay: flow cytometry on HEK293-T, alanine scan
Sequence (P20138 18-364 P132A limits assumed): as the sequence (P20138 18-364 F117A limits assumed) above, with A100F, P115A counted along it
Description: as §1, §2

Binder	Mean % WT Binding [% WT binding]
B1	74.5
B2	107
B3	70.1
B4	102

target: human CD33 P145A (human, UniProt P20138 18-364); assay: flow cytometry on HEK293-T, alanine scan
Sequence (P20138 18-364 P145A limits assumed): as the sequence (P20138 18-364 F117A limits assumed) above, with A100F, P128A counted along it
Description: as §1, §2

Binder	Mean % WT Binding [% WT binding]
B1	75.2
B2	89.3
B3	78.8
B4	105

target: human CD33 S164A (human, UniProt P20138 18-364); assay: flow cytometry on HEK293-T, alanine scan
Sequence (P20138 18-364 S164A limits assumed): as the sequence (P20138 18-364 F117A limits assumed) above, with A100F, S147A counted along it
Description: as §1, §2

Binder	Mean % WT Binding [% WT binding]
B1	96.3
B2	101
B3	112
B4	117

target: human CD33 S104A (human, UniProt P20138 18-364); assay: flow cytometry on HEK293-T, alanine scan
Sequence (P20138 18-364 S104A limits assumed): as the sequence (P20138 18-364 F117A limits assumed) above, with S87A, A100F counted along it
Description: as §1, §2

Binder	Mean % WT Binding [% WT binding]
B1	102
B2	89
B3	86.4
B4	109

target: human CD33 T125A (human, UniProt P20138 18-364); assay: flow cytometry on HEK293-T, alanine scan
Sequence (P20138 18-364 T125A limits assumed): as the sequence (P20138 18-364 F117A limits assumed) above, with A100F, T108A counted along it
Description: as §1, §2

Binder	Mean % WT Binding [% WT binding]
B1	932
B2	92.4
B3	218
B4	107

target: human CD33 N100A (human, UniProt P20138 18-364); assay: flow cytometry on HEK293-T, alanine scan
Sequence (P20138 18-364 N100A limits assumed): as the sequence (P20138 18-364 F117A limits assumed) above, with N83A, A100F counted along it
Description: as §1, §2

Binder	Mean % WT Binding [% WT binding]
B1	107
B2	94.8
B3	123
B4	97

target: human CD33 H143A (human, UniProt P20138 18-364); assay: flow cytometry on HEK293-T, alanine scan
Sequence (P20138 18-364 H143A limits assumed): as the sequence (P20138 18-364 F117A limits assumed) above, with A100F, H126A counted along it
Description: as §1, §2

Binder	Mean % WT Binding [% WT binding]
B1	97.9
B2	88.8
B3	106
B4	104

target: human CD33 Y116A (human, UniProt P20138 18-364); assay: flow cytometry on HEK293-T, alanine scan
Sequence (P20138 18-364 Y116A limits assumed): as the sequence (P20138 18-364 F117A limits assumed) above, with Y99A, A100F counted along it
Description: as §1, §2

Binder	Mean % WT Binding [% WT binding]
B1	5.3
B2	0.9
B3	5.4
B4	0.7

target: human CD33 P150A (human, UniProt P20138 18-364); assay: flow cytometry on HEK293-T, alanine scan
Sequence (P20138 18-364 P150A limits assumed): as the sequence (P20138 18-364 F117A limits assumed) above, with A100F, P133A counted along it
Description: as §1, §2

Binder	Mean % WT Binding [% WT binding]
B1	102
B2	78.4
B3	103
B4	112

target: human CD33 L153A (human, UniProt P20138 18-364); assay: flow cytometry on HEK293-T, alanine scan
Sequence (P20138 18-364 L153A limits assumed): as the sequence (P20138 18-364 F117A limits assumed) above, with A100F, L136A counted along it
Description: as §1, §2

Binder	Mean % WT Binding [% WT binding]
B1	144
B2	75.7
B3	92.5
B4	121

target: human CD33 E121A (human, UniProt P20138 18-364); assay: flow cytometry on HEK293-T, alanine scan
Sequence (P20138 18-364 E121A limits assumed): as the sequence (P20138 18-364 F117A limits assumed) above, with A100F, E104A counted along it
Description: as §1, §2

Binder	Mean % WT Binding [% WT binding]
B1	132
B2	87.7
B3	77.3
B4	109

target: human CD33 C101A (human, UniProt P20138 18-364); assay: flow cytometry on HEK293-T, alanine scan
Sequence (P20138 18-364 C101A limits assumed): as the sequence (P20138 18-364 F117A limits assumed) above, with C84A, A100F counted along it
Description: as §1, §2

Binder	Mean % WT Binding [% WT binding]
B2	1.1
B3	1.5
B4	0.6

target: human CD33 T142A (human, UniProt P20138 18-364); assay: flow cytometry on HEK293-T, alanine scan
Sequence (P20138 18-364 T142A limits assumed): as the sequence (P20138 18-364 F117A limits assumed) above, with A100F, T125A counted along it
Description: as §1, §2

Binder	Mean % WT Binding [% WT binding]
B1	133
B2	85.1
B3	88.8
B4	104

target: human CD33 T152A (human, UniProt P20138 18-364); assay: flow cytometry on HEK293-T, alanine scan
Sequence (P20138 18-364 T152A limits assumed): as the sequence (P20138 18-364 F117A limits assumed) above, with A100F, T135A counted along it
Description: as §1, §2

Binder	Mean % WT Binding [% WT binding]
B1	155
B2	86.3
B3	110
B4	117

target: human CD33 G156A (human, UniProt P20138 18-364); assay: flow cytometry on HEK293-T, alanine scan
Sequence (P20138 18-364 G156A limits assumed): as the sequence (P20138 18-364 F117A limits assumed) above, with A100F, G139A counted along it
Description: as §1, §2

Binder	Mean % WT Binding [% WT binding]
B1	116
B2	83.4
B3	67.2
B4	99.4

target: human CD33 S166A (human, UniProt P20138 18-364); assay: flow cytometry on HEK293-T, alanine scan
Sequence (P20138 18-364 S166A limits assumed): as the sequence (P20138 18-364 F117A limits assumed) above, with A100F, S149A counted along it
Description: as §1, §2

Binder	Mean % WT Binding [% WT binding]
B1	131
B2	98.3
B3	110
B4	114

target: human CD33 T139A (human, UniProt P20138 18-364); assay: flow cytometry on HEK293-T, alanine scan
Sequence (P20138 18-364 T139A limits assumed): as the sequence (P20138 18-364 F117A limits assumed) above, with A100F, T122A counted along it
Description: as §1, §2

Binder	Mean % WT Binding [% WT binding]
B1	143
B2	89.9
B3	84.3
B4	123

target: human CD33 N113A (human, UniProt P20138 18-364); assay: flow cytometry on HEK293-T, alanine scan
Sequence (P20138 18-364 N113A limits assumed): as the sequence (P20138 18-364 F117A limits assumed) above, with N96A, A100F counted along it
Description: as §1, §2

Binder	Mean % WT Binding [% WT binding]
B1	81.4
B2	96
B3	45.1
B4	91

target: human CD33 S124A (human, UniProt P20138 18-364); assay: flow cytometry on HEK293-T, alanine scan
Sequence (P20138 18-364 S124A limits assumed): as the sequence (P20138 18-364 F117A limits assumed) above, with A100F, S107A counted along it
Description: as §1, §2

Binder	Mean % WT Binding [% WT binding]
B1	274
B2	87.5
B3	58.8
B4	111

target: human CD33 G151A (human, UniProt P20138 18-364); assay: flow cytometry on HEK293-T, alanine scan
Sequence (P20138 18-364 G151A limits assumed): as the sequence (P20138 18-364 F117A limits assumed) above, with A100F, G134A counted along it
Description: as §1, §2

Binder	Mean % WT Binding [% WT binding]
B1	108
B2	81.1
B3	101
B4	132

target: human CD33 P96A (human, UniProt P20138 18-364); assay: flow cytometry on HEK293-T, alanine scan
Sequence (P20138 18-364 P96A limits assumed): as the sequence (P20138 18-364 F117A limits assumed) above, with P79A, A100F counted along it
Description: as §1, §2

Binder	Mean % WT Binding [% WT binding]
B1	140
B2	84.9
B3	27.4
B4	102

target: human CD33 E154A (human, UniProt P20138 18-364); assay: flow cytometry on HEK293-T, alanine scan
Sequence (P20138 18-364 E154A limits assumed): as the sequence (P20138 18-364 F117A limits assumed) above, with A100F, E137A counted along it
Description: as §1, §2

Binder	Mean % WT Binding [% WT binding]
B1	126
B2	88
B3	84.4
B4	112

target: human CD33 T162A (human, UniProt P20138 18-364); assay: flow cytometry on HEK293-T, alanine scan
Sequence (P20138 18-364 T162A limits assumed): as the sequence (P20138 18-364 F117A limits assumed) above, with A100F, T145A counted along it
Description: as §1, §2

Binder	Mean % WT Binding [% WT binding]
B1	109
B2	86.9
B3	79.9
B4	102

target: human CD33 R109A (human, UniProt P20138 18-364); assay: flow cytometry on HEK293-T, alanine scan
Sequence (P20138 18-364 R109A limits assumed): as the sequence (P20138 18-364 F117A limits assumed) above, with R92A, A100F counted along it
Description: as §1, §2

Binder	Mean % WT Binding [% WT binding]
B1	112
B2	101
B3	99.5
B4	104

target: human CD33 K159A (human, UniProt P20138 18-364); assay: flow cytometry on HEK293-T, alanine scan
Sequence (P20138 18-364 K159A limits assumed): as the sequence (P20138 18-364 F117A limits assumed) above, with A100F, K142A counted along it
Description: as §1, §2

Binder	Mean % WT Binding [% WT binding]
B1	110
B2	119
B3	118
B4	134

target: human CD33 R111A (human, UniProt P20138 18-364); assay: flow cytometry on HEK293-T, alanine scan
Sequence (P20138 18-364 R111A limits assumed): as the sequence (P20138 18-364 F117A limits assumed) above, with R94A, A100F counted along it
Description: as §1, §2

Binder	Mean % WT Binding [% WT binding]
B1	93.4
B2	100
B3	94.3
B4	108

target: human CD33 Y129A (human, UniProt P20138 18-364); assay: flow cytometry on HEK293-T, alanine scan
Sequence (P20138 18-364 Y129A limits assumed): as the sequence (P20138 18-364 F117A limits assumed) above, with A100F, Y112A counted along it
Description: as §1, §2

Binder	Mean % WT Binding [% WT binding]
B2	53.2
B3	319
B4	137

target: human CD33 H157A (human, UniProt P20138 18-364); assay: flow cytometry on HEK293-T, alanine scan
Sequence (P20138 18-364 H157A limits assumed): as the sequence (P20138 18-364 F117A limits assumed) above, with A100F, H140A counted along it
Description: as §1, §2

Binder	Mean % WT Binding [% WT binding]
B1	138
B2	86.6
B3	97.4
B4	115
